Consider 3 substances from publication PMC9433777.

In assay [1] the target is HIV-1 envelope 6535 (subtype B) (HIV-1).
Assay [2] concerns the target HIV-1 envelope CAP210.E8 (subtype C) (HIV-1).
Assay [3] concerns the target HIV-1 envelope CAP214.15 (subtype C) (HIV-1).
The target in assay [4] is HIV-1 envelope CAP45.G3 (subtype C) (HIV-1).
Assay [5] has as its target HIV-1 envelope Du156.12 (subtype C) (HIV-1).
In assay [6] the target is HIV-1 envelope Du172.17 (subtype C) (HIV-1).
Assay [7] has as its target HIV-1 envelope Du422.01 (subtype C) (HIV-1).
Assay [8] deals with HIV-1 envelope Q168.a2 (subtype A) (HIV-1).
Assay [9] concerns the target HIV-1 envelope Q23.17 (subtype A) (HIV-1).
The target in assay [10] is HIV-1 envelope Q461.e2 (subtype A) (HIV-1).
In assay [11] the target is HIV-1 envelope Q842.d12 (subtype A) (HIV-1).
Assay [12] concerns the target HIV-1 envelope QH0692.42 (subtype B) (HIV-1).
For assay [13], the target named is HIV-1 envelope TRO.11 (subtype B) (HIV-1).
The target in assay [14] is HIV-1 envelope ZM197.7 (subtype C) (HIV-1).
For assay [15], the target named is HIV-1 envelope ZM233.6 (subtype C) (HIV-1).

Consider “CAP256-VRC26.25 produced in HEK293 (antibody)”, for which the IC50 of neutralisation of HIV-1 pseudovirus, TZM-bl assay in [1] was greater than 50 µg/mL; in assay [2] it was 0.0012 µg/mL; in assay [3], 3.12 µg/mL; in assay [4], 0.0013 µg/mL; in assay [5], 0.15 µg/mL; in [6], greater than 50 µg/mL. Besides, the IC50 of neutralisation of HIV-1 pseudovirus, TZM-bl assay is 0.11 µg/mL in assay [7]; 1.73 µg/mL in assay [8]; 0.0014 µg/mL in assay [9]; 0.67 µg/mL in assay [10]; greater than 50 µg/mL in assay [11]; greater than 50 µg/mL in assay [12]. The IC50 of neutralisation of HIV-1 pseudovirus, TZM-bl assay in assay [13] is greater than 50 µg/mL; in [14] it was 0.11 µg/mL; in [15], 0.0044 µg/mL.
On to “CAP256-VRC26.25 produced in N. benthamiana (ΔXTFT) with Cas9/sgRNAs coexpression (antibody)”, for which the IC50 of neutralisation of HIV-1 pseudovirus, TZM-bl assay in [1] is greater than 50 µg/mL; in assay [2], 0.0014 µg/mL; in assay [3], 2.77 µg/mL; in [4], 0.0013 µg/mL; in [5] it was 0.041 µg/mL; in assay [6] it was greater than 50 µg/mL. In addition, the IC50 of neutralisation of HIV-1 pseudovirus, TZM-bl assay in [7] is 0.2 µg/mL; in assay [8], 3.05 µg/mL; in assay [9], 0.0016 µg/mL; in [10], 1.61 µg/mL; in assay [11], greater than 50 µg/mL; in assay [12] it was greater than 50 µg/mL. Besides, the IC50 of neutralisation of HIV-1 pseudovirus, TZM-bl assay in assay [13] is greater than 50 µg/mL; in assay [14], 0.098 µg/mL; in assay [15], 0.005 µg/mL.
As for “CAP256-VRC26.25 produced in N. benthamiana (ΔXTFT) without Cas9/sgRNAs coexpression (antibody)”, the IC50 of neutralisation of HIV-1 pseudovirus, TZM-bl assay in assay [1] is greater than 50 µg/mL; in assay [2] it was 0.0015 µg/mL; in assay [3], 4.31 µg/mL; in assay [4] it was 0.0014 µg/mL; in assay [5] it was 0.034 µg/mL; in assay [6] it was greater than 50 µg/mL. For the same substance, the IC50 of neutralisation of HIV-1 pseudovirus, TZM-bl assay is 0.1 µg/mL in assay [7]; 2.94 µg/mL in assay [8]; 0.0016 µg/mL in [9]; 1.73 µg/mL in [10]; greater than 50 µg/mL in [11]; greater than 50 µg/mL in assay [12]. Besides, the values for the IC50 of neutralisation of HIV-1 pseudovirus, TZM-bl assay in [13], in [14] and in [15] were greater than 50 µg/mL, 0.056 µg/mL and 0.0042 µg/mL, respectively.
